Results published in patent US20190194338A1 (Seagen, published 2019).

T1: human BCMA expressed on cells (NCI-H929, U266, JJN3, 293:BCMA) (human, UniProt Q02223 1-184)
T1 construct: Endogenous BCMA on myeloma lines or full-length BCMA clone in HEK 293 cells; also called B-cell maturation antigen; CD269
T1 sequence: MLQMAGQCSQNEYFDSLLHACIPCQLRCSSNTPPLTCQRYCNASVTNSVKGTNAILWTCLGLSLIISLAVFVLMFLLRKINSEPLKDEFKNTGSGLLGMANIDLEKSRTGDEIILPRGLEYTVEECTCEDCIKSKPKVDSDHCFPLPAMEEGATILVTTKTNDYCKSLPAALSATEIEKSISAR


Assays:
[1] = target: T1, human BCMA expressed on cells …; experiment: binding to JJN3 cells
[2] = target: T1, human BCMA expressed on cells …; experiment: binding to U266 cells
[3] = target: T2, FcγRIIIa (hCD16) on transfected CHO cells (human, UniProt P08637 17-254); experiment: competition with labelled h00 on CHO cells with FcγRIIIa
T2 construct: whole, on cells; Also expressed on Jurkat effector cells in the signalling assay; also called human FcRIIIa
T2 sequence (P08637 17-254): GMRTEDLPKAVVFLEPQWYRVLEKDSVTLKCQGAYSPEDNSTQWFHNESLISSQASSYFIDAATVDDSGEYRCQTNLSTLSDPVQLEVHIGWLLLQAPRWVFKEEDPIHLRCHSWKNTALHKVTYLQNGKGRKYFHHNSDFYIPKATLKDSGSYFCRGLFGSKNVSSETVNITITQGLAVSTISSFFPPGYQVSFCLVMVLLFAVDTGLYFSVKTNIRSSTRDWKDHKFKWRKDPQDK

Binder | Kd [1] [nM] | Kd [2] [nM] | binding result [3]
cSG16.17 wild-type (antibody, domain: wild-type human IgG1 heavy chain constant domains; Rat VH and VL fused to human IgG1 and kappa constants; also called chimeric SG16.17; cSG16.17 G1 WT; not shown: human kappa light chain constant domain) heavy: not shown light: DIQMTQSPASLSASLGETVSIECLASEDISDDLAWYQQKSGKSPQVLVYTTSRLQDGVPSRFSGSGSGTRFSLKIIVMQPEDEADYFCQQTYKFPPTFGAGTRLDLKR | ~15 | ~10 | binds
cSG16.17 mutant (antibody, name in EU numbering, domain: human IgG1 heavy chain constant domains; Positions of the Fc mutations are EU numbers, not positions on the UniProt entry; also called cSG16.17 S239D:A330L:I332E; chimeric SG16.17 IgG1 S239D, A330L, I332E; not shown: human kappa light chain constant domain) heavy: QVNLLQSRAALVKPGASVKLSCEASGYTFTDYYIHWVKQSHGKSLEWIGYINPNSGYTKYNENFKTKATMTADKSTNTAYVELSRLTSEDSATYFCTRYMWERVTGFFDFWGPGTKVTVSSASTKGPSVFPLAPSSKSTSGGTAALGCLVKDYFPEPVTVSWNSGALTSGVHTFPAVLQSSGLYSLSSVVTVPSSSLGTQTYICNVNHKPSNTKVDKKVEPKSCDKTHTCPPCPAPELLGGPDVFLFPPKPKDTLMISRTPEVTCVVVDVSHEDPEVKFNWYVDGVEVHNAKTKPREEQYNSTYRVVSVLTVLHQDWLNGKEYKCKVSNKALPLPEEKTISKAKGQPREPQVYTLPPSRDELTKNQVSLTCLVKGFYPSDIAVEWESNGQPENNYKTTPPVLDSDGSFFLYSKLTVDKSRWQQGNVFSCSVMHEALHNHYTQKSLSLSPGK light: DIQMTQSPASLSASLGETVSIECLASEDISDDLAWYQQKSGKSPQVLVYTTSRLQDGVPSRFSGSGSGTRFSLKIIVMQPEDEADYFCQQTYKFPPTFGAGTRLDLKR | – | – | binds
